Measurements as given in patent US20150258192A1, “COMPOSITIONS AND METHODS FOR PREVENTING OR TREATING CHRONIC LUNG ALLOGRAFT DYSFUNCTION (CLAD) AND IDIOPATHIC PULMONARY FIBROSIS (IPF)” (priority 2014, published 2015).
No end group written: not given here.

Tests used:
Assay in all cases: Kinase Profiling Assay
Assay type in all cases: biochemical
Conditions in all cases: peptide 100 μM
[1] = target: Aurora-B(h) (Homo sapiens, UniProt Q96GD4)
In short: (§1)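 Scintillation counting quantifies radiolabeled, positively charged substrate retained on a negatively charged filter after kinase reaction with labeled ATP; inhibitor peptide present.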

[2] = target: CHK2(R145W)(h) (Homo sapiens, UniProt O96017, R145W)
CHK2(R145W)(h), sequence (O96017 whole entry R145W): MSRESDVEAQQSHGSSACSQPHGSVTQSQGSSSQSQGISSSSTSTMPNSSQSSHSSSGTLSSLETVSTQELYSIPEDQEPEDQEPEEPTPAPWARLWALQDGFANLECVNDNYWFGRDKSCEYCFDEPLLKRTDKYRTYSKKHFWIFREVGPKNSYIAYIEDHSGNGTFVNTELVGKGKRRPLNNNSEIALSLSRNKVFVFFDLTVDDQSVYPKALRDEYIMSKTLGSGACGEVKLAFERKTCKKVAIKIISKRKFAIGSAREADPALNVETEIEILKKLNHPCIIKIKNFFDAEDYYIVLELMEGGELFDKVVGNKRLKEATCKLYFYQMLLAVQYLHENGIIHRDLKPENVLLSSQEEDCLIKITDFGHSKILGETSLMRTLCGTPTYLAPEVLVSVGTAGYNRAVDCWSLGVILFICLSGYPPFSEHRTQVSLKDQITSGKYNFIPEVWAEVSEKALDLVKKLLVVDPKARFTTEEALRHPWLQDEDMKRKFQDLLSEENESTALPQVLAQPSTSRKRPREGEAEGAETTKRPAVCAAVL
In short: as §1

[3] = target: FGFR1(h) (Homo sapiens, UniProt P11362)
FGFR1(h), sequence (P11362 22-822): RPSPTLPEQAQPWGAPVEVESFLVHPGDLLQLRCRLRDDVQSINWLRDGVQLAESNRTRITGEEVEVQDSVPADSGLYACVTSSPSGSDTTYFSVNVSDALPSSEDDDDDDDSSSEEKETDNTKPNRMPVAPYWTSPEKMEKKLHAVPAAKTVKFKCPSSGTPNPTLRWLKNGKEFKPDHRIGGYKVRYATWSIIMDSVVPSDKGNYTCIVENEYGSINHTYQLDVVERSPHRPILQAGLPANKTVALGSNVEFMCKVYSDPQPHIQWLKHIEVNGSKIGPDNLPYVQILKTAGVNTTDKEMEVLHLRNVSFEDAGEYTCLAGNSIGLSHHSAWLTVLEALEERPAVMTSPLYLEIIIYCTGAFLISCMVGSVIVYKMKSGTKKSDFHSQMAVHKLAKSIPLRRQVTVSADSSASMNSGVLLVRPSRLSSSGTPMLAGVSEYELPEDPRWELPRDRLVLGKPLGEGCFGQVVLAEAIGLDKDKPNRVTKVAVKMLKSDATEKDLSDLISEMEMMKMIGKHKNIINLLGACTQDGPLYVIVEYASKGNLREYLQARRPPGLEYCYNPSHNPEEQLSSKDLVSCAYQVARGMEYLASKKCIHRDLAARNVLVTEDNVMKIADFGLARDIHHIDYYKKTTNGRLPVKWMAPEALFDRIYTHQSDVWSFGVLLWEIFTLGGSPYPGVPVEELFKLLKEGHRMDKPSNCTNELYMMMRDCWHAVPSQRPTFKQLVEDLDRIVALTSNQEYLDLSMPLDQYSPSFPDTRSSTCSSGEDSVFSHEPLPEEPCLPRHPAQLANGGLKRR
In short: as §1

[4] = target: Fes(h) (Homo sapiens, UniProt P07332)
Fes(h), sequence (P07332 whole entry): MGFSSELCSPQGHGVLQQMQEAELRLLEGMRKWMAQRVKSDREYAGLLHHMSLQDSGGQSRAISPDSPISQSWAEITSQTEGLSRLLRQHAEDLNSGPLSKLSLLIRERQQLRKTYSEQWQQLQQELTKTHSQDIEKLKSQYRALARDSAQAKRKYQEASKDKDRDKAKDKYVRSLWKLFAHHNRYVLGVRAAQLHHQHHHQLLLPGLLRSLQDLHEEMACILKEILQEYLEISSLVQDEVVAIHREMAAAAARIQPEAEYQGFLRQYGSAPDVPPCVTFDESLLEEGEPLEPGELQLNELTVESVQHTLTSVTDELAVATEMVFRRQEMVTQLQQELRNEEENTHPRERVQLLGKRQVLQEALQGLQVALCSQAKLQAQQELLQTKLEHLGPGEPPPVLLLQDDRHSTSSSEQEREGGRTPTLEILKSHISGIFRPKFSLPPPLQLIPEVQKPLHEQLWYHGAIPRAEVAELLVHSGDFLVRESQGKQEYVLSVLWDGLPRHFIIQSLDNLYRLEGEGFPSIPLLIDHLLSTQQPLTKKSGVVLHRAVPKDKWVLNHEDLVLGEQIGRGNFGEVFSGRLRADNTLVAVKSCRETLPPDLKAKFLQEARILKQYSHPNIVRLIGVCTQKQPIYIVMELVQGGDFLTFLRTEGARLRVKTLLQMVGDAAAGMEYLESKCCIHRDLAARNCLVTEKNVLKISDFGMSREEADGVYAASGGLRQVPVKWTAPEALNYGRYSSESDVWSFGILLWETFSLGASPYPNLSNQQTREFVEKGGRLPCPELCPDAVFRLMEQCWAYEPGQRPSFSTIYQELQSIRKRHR
In short: as §1

[5] = target: T1, IRAK4(h) (Homo sapiens, UniProt Q9NWZ3)
T1 construct: purchased Millipore
T1 sequence (Q9NWZ3 1-460): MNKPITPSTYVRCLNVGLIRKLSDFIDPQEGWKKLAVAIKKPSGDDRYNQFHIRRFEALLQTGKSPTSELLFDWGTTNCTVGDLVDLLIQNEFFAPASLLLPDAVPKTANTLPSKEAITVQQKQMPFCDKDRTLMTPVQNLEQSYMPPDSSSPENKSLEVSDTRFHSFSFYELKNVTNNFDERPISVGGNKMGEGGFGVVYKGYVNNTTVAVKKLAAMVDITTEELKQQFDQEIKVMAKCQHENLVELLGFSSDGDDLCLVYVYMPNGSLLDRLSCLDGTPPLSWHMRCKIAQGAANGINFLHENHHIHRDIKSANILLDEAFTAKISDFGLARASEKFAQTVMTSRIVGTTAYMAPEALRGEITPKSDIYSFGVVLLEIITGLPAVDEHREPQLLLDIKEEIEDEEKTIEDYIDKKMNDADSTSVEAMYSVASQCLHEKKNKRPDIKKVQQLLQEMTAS
In short: as §1

[6] = target: T2, LIMK1(h) (Homo sapiens, UniProt P53667)
T2 construct: purchased Millipore
T2 sequence (P53667 whole entry): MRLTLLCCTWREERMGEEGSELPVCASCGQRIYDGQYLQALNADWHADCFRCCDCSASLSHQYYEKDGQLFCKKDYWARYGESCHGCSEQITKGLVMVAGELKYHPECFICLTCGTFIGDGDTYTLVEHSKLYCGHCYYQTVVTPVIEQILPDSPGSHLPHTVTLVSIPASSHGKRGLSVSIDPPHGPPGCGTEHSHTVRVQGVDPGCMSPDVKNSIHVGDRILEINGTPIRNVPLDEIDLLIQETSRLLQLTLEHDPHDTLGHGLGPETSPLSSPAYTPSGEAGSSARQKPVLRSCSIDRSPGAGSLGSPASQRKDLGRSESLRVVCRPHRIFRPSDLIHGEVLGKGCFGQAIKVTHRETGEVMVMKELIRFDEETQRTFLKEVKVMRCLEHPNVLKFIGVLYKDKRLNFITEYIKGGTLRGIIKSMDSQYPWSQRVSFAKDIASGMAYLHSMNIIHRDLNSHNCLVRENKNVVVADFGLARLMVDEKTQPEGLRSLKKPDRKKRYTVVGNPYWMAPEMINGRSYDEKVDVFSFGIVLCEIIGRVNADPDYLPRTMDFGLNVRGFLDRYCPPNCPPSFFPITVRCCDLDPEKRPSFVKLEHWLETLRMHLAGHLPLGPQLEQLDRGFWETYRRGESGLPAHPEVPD
In short: as §1

[7] = target: T3, Mer(h) (Homo sapiens, UniProt Q12866)
T3 construct: purchased Millipore
T3 sequence (Q12866 21-999): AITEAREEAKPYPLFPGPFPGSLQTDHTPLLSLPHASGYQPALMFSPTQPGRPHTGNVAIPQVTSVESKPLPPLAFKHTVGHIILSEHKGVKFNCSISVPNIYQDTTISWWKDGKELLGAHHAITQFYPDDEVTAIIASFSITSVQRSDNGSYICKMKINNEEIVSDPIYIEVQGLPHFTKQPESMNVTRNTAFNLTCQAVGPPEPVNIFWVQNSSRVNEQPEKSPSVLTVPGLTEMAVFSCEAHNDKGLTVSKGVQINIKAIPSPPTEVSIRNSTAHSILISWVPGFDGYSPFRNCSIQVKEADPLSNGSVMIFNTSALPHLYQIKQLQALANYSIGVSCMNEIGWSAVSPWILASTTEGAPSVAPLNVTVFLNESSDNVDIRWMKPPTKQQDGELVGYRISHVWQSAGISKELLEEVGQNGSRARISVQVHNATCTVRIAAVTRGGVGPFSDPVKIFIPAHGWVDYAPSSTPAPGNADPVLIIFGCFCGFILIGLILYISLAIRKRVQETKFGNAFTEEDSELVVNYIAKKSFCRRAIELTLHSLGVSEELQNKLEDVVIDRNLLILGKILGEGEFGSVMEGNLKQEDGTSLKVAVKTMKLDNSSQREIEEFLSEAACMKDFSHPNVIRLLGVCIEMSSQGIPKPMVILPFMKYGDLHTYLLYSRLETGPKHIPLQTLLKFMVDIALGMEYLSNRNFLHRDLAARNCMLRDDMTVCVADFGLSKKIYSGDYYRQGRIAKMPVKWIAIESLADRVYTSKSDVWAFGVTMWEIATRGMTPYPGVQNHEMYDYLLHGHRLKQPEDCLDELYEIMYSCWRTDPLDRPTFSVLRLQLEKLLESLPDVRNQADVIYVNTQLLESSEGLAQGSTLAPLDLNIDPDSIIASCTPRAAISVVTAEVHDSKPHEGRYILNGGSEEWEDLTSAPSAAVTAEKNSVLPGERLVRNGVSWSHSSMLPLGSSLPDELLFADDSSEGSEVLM
In short: as §1

[8] = target: Pim-3(h) (Homo sapiens, UniProt Q86V86)
In short: as §1

[9] = target: T4, Snk(h) (Homo sapiens, UniProt Q9NYY3)
T4 construct: purchased Millipore
T4 sequence (Q9NYY3 whole entry): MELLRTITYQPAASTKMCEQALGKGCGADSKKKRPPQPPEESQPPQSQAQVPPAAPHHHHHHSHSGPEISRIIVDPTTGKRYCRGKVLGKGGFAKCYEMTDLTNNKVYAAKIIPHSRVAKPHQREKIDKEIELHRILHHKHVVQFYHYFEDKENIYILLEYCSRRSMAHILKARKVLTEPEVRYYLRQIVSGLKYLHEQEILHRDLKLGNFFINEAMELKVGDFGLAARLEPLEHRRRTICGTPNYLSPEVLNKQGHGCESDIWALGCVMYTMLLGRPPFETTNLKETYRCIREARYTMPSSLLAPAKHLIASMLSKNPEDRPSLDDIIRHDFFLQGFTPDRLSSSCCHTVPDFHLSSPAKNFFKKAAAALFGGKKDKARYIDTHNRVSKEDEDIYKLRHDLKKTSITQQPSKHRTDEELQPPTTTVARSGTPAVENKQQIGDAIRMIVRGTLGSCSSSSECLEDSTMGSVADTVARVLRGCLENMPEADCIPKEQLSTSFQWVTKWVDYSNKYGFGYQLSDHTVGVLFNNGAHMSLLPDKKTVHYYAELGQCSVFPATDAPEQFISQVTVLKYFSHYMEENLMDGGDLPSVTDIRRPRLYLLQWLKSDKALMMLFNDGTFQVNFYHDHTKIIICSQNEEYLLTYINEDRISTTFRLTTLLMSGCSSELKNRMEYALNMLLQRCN
In short: as §1

[10] = target: T5, MKK7β(h) (Homo sapiens, UniProt O14733)
T5 construct: purchased Millipore
T5 sequence (O14733 1-419): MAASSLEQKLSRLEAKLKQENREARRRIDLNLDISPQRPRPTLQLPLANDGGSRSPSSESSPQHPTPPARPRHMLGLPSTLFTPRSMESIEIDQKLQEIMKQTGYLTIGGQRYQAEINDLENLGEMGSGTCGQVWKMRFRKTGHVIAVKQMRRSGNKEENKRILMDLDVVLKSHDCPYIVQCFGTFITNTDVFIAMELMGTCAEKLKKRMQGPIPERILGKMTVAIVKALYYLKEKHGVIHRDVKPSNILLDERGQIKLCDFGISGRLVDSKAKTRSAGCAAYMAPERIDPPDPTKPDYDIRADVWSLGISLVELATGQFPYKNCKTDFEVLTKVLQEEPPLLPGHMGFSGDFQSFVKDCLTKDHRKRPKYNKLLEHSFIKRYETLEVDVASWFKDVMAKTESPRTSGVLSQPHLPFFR
In short: as §1

Aurora-B(h), sequence (Q96GD4 whole entry): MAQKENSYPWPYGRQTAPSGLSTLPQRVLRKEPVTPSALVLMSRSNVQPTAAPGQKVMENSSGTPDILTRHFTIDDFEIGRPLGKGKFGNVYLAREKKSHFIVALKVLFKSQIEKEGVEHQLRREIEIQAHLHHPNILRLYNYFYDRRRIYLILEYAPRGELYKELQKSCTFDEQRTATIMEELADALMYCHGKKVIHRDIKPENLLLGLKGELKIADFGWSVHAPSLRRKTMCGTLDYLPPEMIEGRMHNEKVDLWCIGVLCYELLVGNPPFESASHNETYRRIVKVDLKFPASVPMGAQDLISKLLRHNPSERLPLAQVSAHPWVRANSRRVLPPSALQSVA

Sequence | % activity [1] [%] | % activity [2] [%] | % activity [3] [%] | % activity [4] [%] | % activity [5] [%] | % activity [6] [%] | % activity [7] [%] | % activity [8] [%] | % activity [9] [%] | % activity [10] [%]
HRRIKAWLKKIKALARQLGVAA (Mammal) [MMI-0500] | 5 | 3 | 18 | 23 | 3 | 87 | 17 | 37 | 122 | 
YARAAARQARAKALNRQLGVA (Mammal) [MMI-0200] | 166 | 81 | 97 | 74 | 110 |  | 90 | 94 |  | 
YARAAARQARAKALARQLGVAA [MMI-0100] |  | 97 | 120 |  |  |  | 47 |  | 94 | 137
FAKLAARLYRKALARQLGVAA [MMI-0300] | 128 | 33 | 55 | 20 | 59 | 88 | 52 | 80 |  | 100
KAFAKLAARLYRKALARQLGVAA [MMI-0400] | 150 | 31 | 59 | 16 | 59 | 92 | 50 | 80 | 131 | 94
